Experimental data from patent US20230322888A1.

Tests used:
Assay in all cases: cell-based or functional assay
[1] = molecular target: human GLP1 receptor (human) (UniProt P43220)
[2] = molecular target: cynomolgus monkey GLP1 receptor (cynomolgus monkey) (UniProt F8V479)
[3] = molecular target: mouse GLP1 receptor (mouse) (UniProt O35659)
Chain of mouse GLP1 receptor (mouse) (O35659 22-463): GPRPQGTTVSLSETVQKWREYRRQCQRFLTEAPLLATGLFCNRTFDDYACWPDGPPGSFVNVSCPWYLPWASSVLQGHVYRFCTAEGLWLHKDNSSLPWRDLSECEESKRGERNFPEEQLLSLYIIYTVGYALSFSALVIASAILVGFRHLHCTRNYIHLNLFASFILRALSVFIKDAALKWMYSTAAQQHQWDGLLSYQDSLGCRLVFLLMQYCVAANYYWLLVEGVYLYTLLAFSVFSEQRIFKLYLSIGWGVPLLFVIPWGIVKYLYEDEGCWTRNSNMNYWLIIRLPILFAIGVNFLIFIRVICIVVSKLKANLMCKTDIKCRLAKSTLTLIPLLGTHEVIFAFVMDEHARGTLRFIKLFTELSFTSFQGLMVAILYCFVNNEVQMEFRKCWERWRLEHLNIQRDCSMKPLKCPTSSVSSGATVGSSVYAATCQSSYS

Chain of Dulaglutide (Fc fusion) (chain): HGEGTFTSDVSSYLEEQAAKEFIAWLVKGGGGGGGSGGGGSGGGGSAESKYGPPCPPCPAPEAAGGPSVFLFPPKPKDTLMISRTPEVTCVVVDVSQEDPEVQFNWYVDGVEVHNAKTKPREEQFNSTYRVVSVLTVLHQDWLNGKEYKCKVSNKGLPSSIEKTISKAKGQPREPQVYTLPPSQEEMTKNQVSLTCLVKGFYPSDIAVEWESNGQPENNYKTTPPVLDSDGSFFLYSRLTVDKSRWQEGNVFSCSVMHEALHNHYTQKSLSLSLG
Chain of Albiglutide (chain): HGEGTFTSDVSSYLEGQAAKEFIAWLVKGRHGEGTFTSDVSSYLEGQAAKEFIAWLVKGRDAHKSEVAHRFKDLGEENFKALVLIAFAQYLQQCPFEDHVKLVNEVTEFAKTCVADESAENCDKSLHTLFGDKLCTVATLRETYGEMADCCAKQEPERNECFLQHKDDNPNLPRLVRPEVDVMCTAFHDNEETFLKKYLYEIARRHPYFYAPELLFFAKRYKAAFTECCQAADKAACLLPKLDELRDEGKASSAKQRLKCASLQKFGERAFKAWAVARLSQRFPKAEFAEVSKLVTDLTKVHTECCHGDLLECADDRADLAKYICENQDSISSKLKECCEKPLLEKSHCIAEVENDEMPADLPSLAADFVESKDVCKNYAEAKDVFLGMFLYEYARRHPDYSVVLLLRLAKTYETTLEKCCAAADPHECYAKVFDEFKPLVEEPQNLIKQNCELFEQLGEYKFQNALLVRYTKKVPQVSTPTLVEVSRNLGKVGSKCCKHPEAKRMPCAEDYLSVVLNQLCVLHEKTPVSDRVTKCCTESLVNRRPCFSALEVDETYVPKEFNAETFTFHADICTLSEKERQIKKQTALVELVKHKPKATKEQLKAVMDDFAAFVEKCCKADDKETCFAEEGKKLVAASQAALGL
Chain of cynomolgus monkey GLP1 receptor (cynomolgus monkey) (F8V479 entry or part of it): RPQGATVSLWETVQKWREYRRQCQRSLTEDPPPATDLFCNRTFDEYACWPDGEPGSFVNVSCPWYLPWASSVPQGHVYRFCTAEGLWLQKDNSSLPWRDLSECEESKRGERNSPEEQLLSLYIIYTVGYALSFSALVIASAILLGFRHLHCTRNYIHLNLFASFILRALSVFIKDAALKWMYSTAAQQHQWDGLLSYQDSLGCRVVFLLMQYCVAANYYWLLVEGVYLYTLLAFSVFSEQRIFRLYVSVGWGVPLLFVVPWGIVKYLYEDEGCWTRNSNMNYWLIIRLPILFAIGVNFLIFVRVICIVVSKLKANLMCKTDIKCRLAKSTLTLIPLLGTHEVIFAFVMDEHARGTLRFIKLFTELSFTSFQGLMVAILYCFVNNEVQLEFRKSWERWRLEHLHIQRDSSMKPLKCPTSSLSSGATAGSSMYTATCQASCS
Chain of human GLP1 receptor (human) (P43220 24-463): as the sequence (F8V479 entry or part of it) above, with N112S, S120F, G202S, V205L, F237L, R241W, V249I counted along it

Row | cAMP induction hGLP1R EC50 [1] [nM] | cAMP induction CGLP1R EC50 [2] [nM] | cAMP induction mGLP1R EC50 [3] [nM] | Substance
1 | 0.981 | 1.76 | 1.49 | Albiglutide
2 | 0.038 | 0.045 | 0.02 | Dulaglutide (Fc fusion)
3 | – | – | 0.012 | GLP1 (from UniProt P01275 98-127) (peptide)
4 | – | 0.079 | 0.052 | Liraglutide (peptide)
